Experimental data published in US20260078398A1, “PLANTS GENETICALLY ENGINEERED FOR INCREASED WATER USE EFFICIENCY AND CARBON INTAKE AND METHODS FOR MAKING AND USING THEM” (The Regents of the University of California, priority 2022, published 2026).

Tests used:
[1] = target: T1, His-HT1 (recombinant Arabidopsis HT1 protein kinase, wild type, with His tag)
T1 chain: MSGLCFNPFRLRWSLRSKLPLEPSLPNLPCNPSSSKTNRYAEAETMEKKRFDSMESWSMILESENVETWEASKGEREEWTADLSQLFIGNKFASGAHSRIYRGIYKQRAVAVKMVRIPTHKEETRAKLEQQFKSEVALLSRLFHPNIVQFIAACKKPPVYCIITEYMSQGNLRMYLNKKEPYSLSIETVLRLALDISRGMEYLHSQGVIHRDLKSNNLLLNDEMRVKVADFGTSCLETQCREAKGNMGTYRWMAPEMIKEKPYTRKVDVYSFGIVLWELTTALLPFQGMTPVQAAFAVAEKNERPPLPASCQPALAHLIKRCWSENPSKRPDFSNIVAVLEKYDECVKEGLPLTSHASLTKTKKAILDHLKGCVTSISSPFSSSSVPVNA

CBC1 = test: HT1-dependent CBC1 kinase activation, in vitro phosphorylation and in-gel kinase assays; type: biochemical, Arabidopsis; conditions: kinase inactive isoforms, histone as substrate
Excerpt: A previous study reported that the HT1 kinase phosphorylates the CBC1 kinase in vitro (13). Whether this phosphorylation of CBC1 affects CBC1 activity remains unknown. We confirmed CBC1 phosphorylation by HT1 using recombinant His-HT1 and GST-CBC1 proteins by in vitro phosphorylation assays using radioactive ^32P-ATP (FIG. 5). Moreover, phosphorylation levels of histone, an artificial kinase substrate, were increased at the same time. […] In-gel kinase assays were pursued to test this hypothesis and provide direct evidence of HT1-dependent CBC1 kinase activation (FIG. 1A). […] We identified in vitro phosphorylation sites in CBC1 using mass spectrometry by analyzing recombinant CBC1 protein in the presence or absence of HT1 (FIG. 1C). We found two HT1-dependent phosphorylation sites (Thr-256 and Ser-280) that lie within or near the activation-loop of CBC1.
FIG. 1. […] Histone was used as an artificial phosphorylation substrate of CBC1. • (C) Recombinant CBC1 proteins were incubated with or without HT1 and ATP, and CBC1 phosphorylation sites were identified by mass spectrometry. The red fonts indicate HT1-dependent phosphorylation sites. CBC1 autophosphorylation sites detected without HT1 addition are labeled in black fonts. […] CBB gels show loading controls.

MPK4 and HT1 = test: in vitro pull-down assay, His-HT1 with GST-MPK4; type: binding, Arabidopsis; conditions: pull-down with or without 20 mM NaHCO3
Protocol: We therefore investigated a possible binding between MPK4 and HT1 and the effect of HCO3^−.
FIG. 4. […] CO2 concentration changes were applied as indicated on top (p.p.m.). n=6 experiments, error bars show ±SEM. • (J) Model of plant stomatal CO2 sensor and signaling (see text).
FIG. 6. […] Precipitated proteins were washed with buffers supplemented with NaHCO3 at the indicated concentrations (0, 2 or 20 mM). See FIG. 4d for an independent experiment. To control for effects of Na^+, 20 mM NaCl (0 mM NaHCO3) for lanes 1 and 4 were included in the buffers; and 18 mM NaCl (2 mM NaHCO3) for lane 3 were included in buffer.

[2] = system: MPK4/12, HT1 and CBC1 recombinant proteins; test: in vitro phosphorylation assay: NaHCO3-dependent down-regulation of HT1-mediated CBC1 phosphorylation; type: biochemical, Arabidopsis; conditions: isoform replaces wild type protein or is added; 20 mM NaHCO3 vs NaCl control, 30 min
Protocol: We tested whether this HT1-mediated activation of CBC1 is inhibited by CO2/bicarbonate by adding NaHCO3 in in vitro phosphorylation reactions. […]
FIG. 2. […] Histone was used as an artificial protein kinase substrate. • (B) MPK4, HT1 and CBC1 proteins were incubated with NaHCO3 at the indicated concentrations for 30 min, and in vitro phosphorylation assays were performed. • (C) CBC1 band intensities as shown in (B) were measured using IMAGEJ™, n=4 experiments, error bars show ±S.D. • (D) MPK4, HT1 and CBC1 proteins were incubated in reaction buffers adjusted at different pH (6.5 to 8.5) for 30 min, and in vitro phosphorylation assays were performed. • (E) CBC1 band intensities and the density-ratios of ‘+NaHCO3’ to ‘—NaHCO3’ (=+NaCl controls) for each pH condition
FIG. 3. […] Ambient CO2 concentrations are indicated by the top bars. n=7 experiments, error bars show ±SEM. • (C) Recombinant HT1 (wild type, HT1-G89R or HT1-R173Q) and CBC1 proteins were incubated with MPK4 in the presence or absence of 20 mM NaHCO3 or 20 mM NaCl (−controls) for 30 min, and in vitro phosphorylation assays were performed. • (D) Recombinant MPK12, CBC1 and HT1 (WT or R102K) proteins were incubated with or without 20 mM NaHCO3 or 20 mM NaCl (−controls) for 30 min, and in vitro phosphorylation assays were performed. Histone was used as an artificial kinase substrate. • (E) HT1 (WT or A109V) proteins were used for in vitro phosphorylation assays. Proteins were incubated with or without 20 mM NaHCO3 or 20 mM NaCl (−controls) for 30 min. • (F) Stomatal conductances were analyzed using intact plants of Arabidopsis (Col-0 (WT), cbc1 cbc2, ht1-A109V and cbc1 cbc2 ht1-A109V). CO2 concentration changes were applied as indicated on top (p.p.m.). […]

B1: His-BdMPK5 (D90N), chill1 variant isoform (protein)
chain: MRMEGGGAGPAAAAAAGGAHGLGEAQIKGTLTHGGRYVQYNVYGNLFEVSAKYVPPIRPVGRGACGIICAAINVQTREEVAIKKIGNAFNNQIDAKRTLREVKLLRHMNHENVISIKDIIRPPRRENFNDVYIVYELMDTDLHHLLRSNQPLTDDHCQYFLYQVLRGLKYVHSANVLHRDLRPSNLLLNAKCDLKIGDFGLARTTTETDFMMEYVVTRWYRAPELLLNCSEYTGAIDMWSVGCILGEIATREPLFPGKDYVHQLRLITELLGSPDDTSLGFLRSDNARRYVRSLPQYPKQQFRSRFPNMSSGAMDLLERMLVFDPNKRITVDEALCHPYLASLHEINDEPVCPAPFSFDFEQPSFTEEDIKELIWRESVKFNPEPIH
[1]
  CBC1 phosphorylation, in vitro phosphorylation assay with GST-CBC1, His-HT1 and His-BdMPK5 (D90N), with or without 20 mM NaHCO3 (n=2): The BdMPK5-D90N variant protein abrogated the high CO2/bicarbonate-mediated downregulation of CBC1 phosphorylation

B2: MPK12 (recombinant Arabidopsis MAP kinase MPK12) (protein)
chain: MSGESSSGSTEHCIKVVPTHGGRYVQYNVYGQLFEVSRKYVPPIRPIGRGACGIVCAAVNSVTGEKVAIKKIGNAFDNIIDAKRTLREIKLLRHMDHENVITIKDIVRPPQRDIFNDVYIVYELMDTDLQRILRSNQTLTSDQCRFLVYQLLRGLKYVHSANILHRDLRPSNVLLNSKNELKIGDFGLARTTSDTDFMTEYVVTRWYRAPELLLNCSEYTAAIDIWSVGCILGEIMTGQPLFPGKDYVHQLRLITELVGSPDNSSLGFLRSDNARRYVRQLPRYPKQQFAARFPKMPTTAIDLLERMLVFDPNRRISVDEALGHAYLSPHHDVAKEPVCSTPFSFDFEHPSCTEEHIKELIYKESVKFNPDH
[1]
  CBC1 and histone phosphorylation in vitro (HT1 + CBC1 + MPK12, 20 mM NaHCO3; FIG. 2A, n>6): when MPK4 or MPK12 were added to the reaction, we found that the addition of NaHCO3, but not NaCl, inhibited both CBC1 phosphorylation and histone phosphorylation in vitro
  HT1 kinase activity, in vitro phosphorylation assay with or without 20 mM NaHCO3 (FIG. 4B, n=3): HT1 kinase activity was inhibited in response to NaHCO3, only in the presence of MPK12

B3: His-BdMPK5 (WT), recombinant Brachypodium distachyon BdMPK5 (protein)
chain: MRMEGGGAGPAAAAAAGGAHGLGEAQIKGTLTHGGRYVQYNVYGNLFEVSAKYVPPIRPVGRGACGIICAAINVQTREEVAIKKIGNAFDNQIDAKRTLREVKLLRHMNHENVISIKDIIRPPRRENFNDVYIVYELMDTDLHHLLRSNQPLTDDHCQYFLYQVLRGLKYVHSANVLHRDLRPSNLLLNAKCDLKIGDFGLARTTTETDFMMEYVVTRWYRAPELLLNCSEYTGAIDMWSVGCILGEIATREPLFPGKDYVHQLRLITELLGSPDDTSLGFLRSDNARRYVRSLPQYPKQQFRSRFPNMSSGAMDLLERMLVFDPNKRITVDEALCHPYLASLHEINDEPVCPAPFSFDFEQPSFTEEDIKELIWRESVKFNPEPIH
[1]
  CBC1 protein kinase activity, in vitro phosphorylation assay with GST-CBC1, His-HT1 and His-BdMPK5, with or without 20 mM NaHCO3 (n=2): HT1 and CBC1 together with the BdMPK5 protein showed a high CO2/bicarbonate-induced down-regulation of the CBC1 protein kinase activity

B4: HT1-K113W: kinase inactive HT1 mutant (protein)
chain: MSGLCFNPFRLRWSLRSKLPLEPSLPNLPCNPSSSKTNRYAEAETMEKKRFDSMESWSMILESENVETWEASKGEREEWTADLSQLFIGNKFASGAHSRIYRGIYKQRAVAVWMVRIPTHKEETRAKLEQQFKSEVALLSRLFHPNIVQFIAACKKPPVYCIITEYMSQGNLRMYLNKKEPYSLSIETVLRLALDISRGMEYLHSQGVIHRDLKSNNLLLNDEMRVKVADFGTSCLETQCREAKGNMGTYRWMAPEMIKEKPYTRKVDVYSFGIVLWELTTALLPFQGMTPVQAAFAVAEKNERPPLPASCQPALAHLIKRCWSENPSKRPDFSNIVAVLEKYDECVKEGLPLTSHASLTKTKKAILDHLKGCVTSISSPFSSSSVPVNA
CBC1
  HT1-dependent activation/phosphorylation of CBC1: did not activate CBC1

B5: CBC1-D253A: kinase inactive CBC1 isoform (protein, UniProt Q9SSA4 1-411, looked up, variant D253A)
Serine/threonine-protein …: MKEKAESGGGVGYVRADQIDLKSLDEQLQRHLSKAWTMEKRKSLSDGEDNVNNTRHNQNNFGHRQLVFQRPLLGGGYSNNNNSSKNDIIRSTEVEKSRREWEIDPSKLIIKSVIARGTFGTVHRGIYDGQDVAVKLLDWGEEGHRSDAEIASLRAAFTQEVAVWHKLDHPNVTKFIGAAMGTSEMSIQTENGQMGMPSNVCCVVVEYCPGGALKSFLIKTRRRKLAFKVVIQLSLDLARGLSYLHSQKIVHRAVKTENMLLDKSRTLKIADFGVARLEASNPNDMTGETGTLGYMAPEVLNGSPYNRKCDVYSFGICLWEIYCCDMPYPDLSFSEVTSAVVRQNLRPEIPRCCPSSLANVMKRCWDANPEKRPEMEEVVAMLEAIDTSKGGGMIPPDQQQGCFCFRRHRGP
CBC1
  HT1-dependent activation/phosphorylation of CBC1: reduced phosphorylation level compared to wild type CBC1

B6: HT1-G89R: recombinant HT1 protein kinase isoform with dominant G89R mutation (protein)
chain: MSGLCFNPFRLRWSLRSKLPLEPSLPNLPCNPSSSKTNRYAEAETMEKKRFDSMESWSMILESENVETWEASKGEREEWTADLSQLFIRNKFASGAHSRIYRGIYKQRAVAVKMVRIPTHKEETRAKLEQQFKSEVALLSRLFHPNIVQFIAACKKPPVYCIITEYMSQGNLRMYLNKKEPYSLSIETVLRLALDISRGMEYLHSQGVIHRDLKSNNLLLNDEMRVKVADFGTSCLETQCREAKGNMGTYRWMAPEMIKEKPYTRKVDVYSFGIVLWELTTALLPFQGMTPVQAAFAVAEKNERPPLPASCQPALAHLIKRCWSENPSKRPDFSNIVAVLEKYDECVKEGLPLTSHASLTKTKKAILDHLKGCVTSISSPFSSSSVPVNA
MPK4 and HT1
  HCO3- dependent binding of HT1 isoform with MPK4: disrupts the HCO3^−-dependent binding with MPK4
[2]
  NaHCO3-mediated down-regulation of CBC1 phosphorylation/activity with the protein isoform in the reaction: no NaHCO3-mediated inhibition of CBC1 activity

B7: MPK12-K70R: kinase inactive MPK12 isoform (protein)
chain: MSGESSSGSTEHCIKVVPTHGGRYVQYNVYGQLFEVSRKYVPPIRPIGRGACGIVCAAVNSVTGEKVAIRKIGNAFDNIIDAKRTLREIKLLRHMDHENVITIKDIVRPPQRDIFNDVYIVYELMDTDLQRILRSNQTLTSDQCRFLVYQLLRGLKYVHSANILHRDLRPSNVLLNSKNELKIGDFGLARTTSDTDFMTEYVVTRWYRAPELLLNCSEYTAAIDIWSVGCILGEIMTGQPLFPGKDYVHQLRLITELVGSPDNSSLGFLRSDNARRYVRQLPRYPKQQFAARFPKMPTTAIDLLERMLVFDPNRRISVDEALGHAYLSPHHDVAKEPVCSTPFSFDFEHPSCTEEHIKELIYKESVKFNPDH
[2]
  NaHCO3-mediated down-regulation of CBC1 phosphorylation/activity with the protein isoform in the reaction: retained the ability to mediate CO2/bicarbonate-induced CBC1 inhibition
